Source: patent US20220000998A1 (STRIKE PHARMA, published 2022)

Molecular target: UU-30
Assay: cell-based or functional assay

| Binder | t1/2 (min) of UU-30 in mouse plasma (LC-MS/MS) [min] |
| --- | --- |
| X-SM083-bi-12 (bispecific antibody) heavy: EVQLLESGGGLVQPGGSLRLSCAASGFTFSSYAMSWVRQAPGKGLEWVSGIGGSSSYTSYADSVKGRFTISRDNSKNTLYLQMNSLRAEDTAVYYCARYYSYHMDYWGQGTLVTVSSASTKGPSVFPLAPSSRSTSESTAALGCLVKDYFPEPVTVSWNSGALTSGVHTFPAVLQSSGLYSLSSVVTVPSSNFGTQTYTCNVDHKPSNTKVDKTVERKCCVECPPCPAPPVAGPSVFLFPPKPKDTLMISRTPEVTCVVVDVSHEDPEVQFNWYVDGVEVHNAKTKPREEQFNSTFRVVSVLTVVHQDWLNGKEYKCKVSNKGLPAPIEKTISKTKGQPREPQVYTLPPSREEMTKNQVSLTCLVKGFYPSDIAVEWESNGQPENNYKTTPPMLDSDGSFFLYSKLTVDKSRWQQGNVFSCSVMHEALHNHYTQKSLSLSPGKGGGGSGGGGSQVQLQQPGAELVMPGASVNLSCKASGYTFTDYWMHWVKQRPGQGLEWIGEIDPSDNFSNLNQNFRGKATLTVDKSSRTAFLQLSSLTSEDSAVYYCAVEDYWGQGTTLTVSSGGGGSGGGGSGGGGSGGGGSDIVMTQATPSVLVTPGEAVSISCRASRSLLHSNGITYLYWFLQRPGQSPQVLIYRMSNLVSGVPDRFSGSGSGTAFTLRISRVEAEDVGVYYCMQHLEFPYTFGGGTKLEIK light: DIQMTQSPSSLSASVGDHVTITCRASQSISSYLNWYQQKPGKAPKLLIYAASSLQSGVPSRFSGSGSGTDFTLTISSLQPEDFATYYCQQYGSAPPTFGQGTKLEIK | 424 |
| X-SM083-bi-9 (bispecific antibody) heavy: not shown light: DIQMTQSPSSLSASVGDHVTITCRASQSISSYLNWYQQKPGKAPKLLIYAASSLQSGVPSRFSGSGSGTDFTLTISSLQPEDFATYYCQQYGSAPPTFGQGTKLEIK | 1340 |
